The source of these data is paper PMC6400556 (The Journal of Cell Biology, 2019).

To fix the notation:
B2: His-Sac1 residues 1–188 (domain or fragment, human, UniProt Q9NTJ5 1-188, looked up)
chain: MATAAYEQLKLHITPEKFYVEACDDGADDVLTIDRVSTEVTLAVKKDVPPSAVTRPIFGILGTIHLVAGNYLIVITKKIKVGEFFSHVVWKATDFDVLSYKKTMLHLTDIQLQDNKTFLAMLNHVLNVDGFYFSTTYDLTHTLQRLSNTSPEFQEMSLLERADQRFVWNGHLLRELSAQPEVHRFALP

The assay “His-Sac1 residues 1–188” deals with B2. Nature of the assay: pull-down.
For assay [1], the target named is T1, GST-FAPP1 full length (four-phosphate-adaptor-protein-1) (human, UniProt Q9HB20 1-300).
T1 sequence (looked up): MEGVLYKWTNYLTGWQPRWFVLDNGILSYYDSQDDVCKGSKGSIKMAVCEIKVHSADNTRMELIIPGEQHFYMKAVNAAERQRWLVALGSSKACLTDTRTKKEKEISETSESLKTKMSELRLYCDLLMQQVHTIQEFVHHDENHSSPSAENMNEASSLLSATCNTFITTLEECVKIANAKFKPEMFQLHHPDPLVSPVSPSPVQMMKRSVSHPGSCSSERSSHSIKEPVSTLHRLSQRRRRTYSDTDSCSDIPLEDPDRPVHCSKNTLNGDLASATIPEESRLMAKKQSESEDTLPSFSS
Description: pull-down.

B1: GST-FAPP1 residues 1–100 (domain or fragment, human, UniProt Q9HB20 1-100, looked up)
chain: MEGVLYKWTNYLTGWQPRWFVLDNGILSYYDSQDDVCKGSKGSIKMAVCEIKVHSADNTRMELIIPGEQHFYMKAVNAAERQRWLVALGSSKACLTDTRT
With B1, in the assay with His-Sac1 residues 1–188, the binding result is recorded as “binds”.
Take B2: in assay [1], the binding result was “binds”.
